# Assay results taken from US12364768B2, “Nectin-4 antibody conjugates and uses thereof” (ARARIS BIOTECH AG, priority 2020, dated 2025).
# T1: mouse Nectin-4 (Mus musculus, UniProt Q8R007)
# T1 sequence (Q8R007 31-508): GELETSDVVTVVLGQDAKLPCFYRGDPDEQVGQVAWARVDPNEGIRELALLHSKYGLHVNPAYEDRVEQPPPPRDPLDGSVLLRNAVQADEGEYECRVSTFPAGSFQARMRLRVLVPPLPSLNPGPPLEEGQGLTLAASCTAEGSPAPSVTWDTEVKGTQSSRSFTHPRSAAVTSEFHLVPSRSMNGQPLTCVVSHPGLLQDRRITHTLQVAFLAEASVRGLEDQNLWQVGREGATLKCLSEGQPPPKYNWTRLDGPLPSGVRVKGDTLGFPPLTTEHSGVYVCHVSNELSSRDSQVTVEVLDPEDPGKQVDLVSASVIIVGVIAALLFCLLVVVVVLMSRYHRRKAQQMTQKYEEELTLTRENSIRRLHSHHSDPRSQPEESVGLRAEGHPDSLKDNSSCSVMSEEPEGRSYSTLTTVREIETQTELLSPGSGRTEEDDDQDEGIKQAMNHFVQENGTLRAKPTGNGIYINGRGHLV
# T2: TIGIT binding to Nectin-4 expressing T24 tumor cells (Homo sapiens, UniProt Q96NY8)
# T2 construct: expressed in transfected cells; host or cells: T24 clone, lentiviral transduction
# T2 sequence (Q96NY8 32-510): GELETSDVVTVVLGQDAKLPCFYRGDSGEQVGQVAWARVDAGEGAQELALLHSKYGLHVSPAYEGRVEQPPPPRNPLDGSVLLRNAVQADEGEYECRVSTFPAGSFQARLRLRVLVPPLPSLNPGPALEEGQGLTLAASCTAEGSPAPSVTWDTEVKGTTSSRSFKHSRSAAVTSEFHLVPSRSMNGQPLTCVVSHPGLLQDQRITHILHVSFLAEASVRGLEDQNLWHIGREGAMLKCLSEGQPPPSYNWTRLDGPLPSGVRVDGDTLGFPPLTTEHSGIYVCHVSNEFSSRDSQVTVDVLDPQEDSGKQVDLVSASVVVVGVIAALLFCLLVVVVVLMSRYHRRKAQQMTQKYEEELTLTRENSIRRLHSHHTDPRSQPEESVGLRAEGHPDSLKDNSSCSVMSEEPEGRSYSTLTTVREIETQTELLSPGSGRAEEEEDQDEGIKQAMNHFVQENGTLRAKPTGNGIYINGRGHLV
# Key:
# mouse Nectin-4 = molecular target: T1, mouse Nectin-4; assay: Binding of purified humanized D6C mAbs to mouse Nectin-4; details: mAb of hzD6C VH with the named VL
# Experimental: The humanized D6C VH region was combined with human IgG1 (SEQ ID NO:18) heavy chain constant region, and each humanized D6C VL region was combined individually with the human kappa light chain constant region (SEQ ID NO:20). The humanized D6C heavy chain (SEQ ID NO:24) was co-transfected with each humanized light chain (SEQ ID NOS:26-31) individually into CHO cells in a 30 mL culture, using the parental chimeric antibody, D6C, as a benchmark. A total of 7 mAbs were generated, purified, and analyzed for titer, purity, and binding.
# Analytical size-exclusion chromatography was used to measure the percent purity (% protein of interest, POI), which is preferably 95% or greater. There was a reduction in percent purity seen with the chimeric D6C (84%) and the CDR grafted hzD6C VL (94%). The I2V, N33Q, and G34A mutations in hzD6.1C VL (98%), hzD6.2C VL (95%), and hzD6.3C VL (96%), respectively, as well as the […] N33Q double mutation hzD6.4C VL (99%), resolve the purity issue.
# [1] = molecular target: T2, TIGIT binding to Nectin-4 expressing T24 tumor cells; assay: Blocking of TIGIT-Fc binding to Nectin-4 expressing T24 tumor cells; format: cell-based; details: rhTIGIT-Fc 40 nM; antibody at various concentrations from 400 nM, 1:2 dilutions
# Excerpt: Anti-Nectin-4 antibody was examined to determine whether it could block binding of TIGIT to Nectin-4 expressing T24 tumor cells. Stable Nectin-4 expression in a T24 clone was achieved by Nectin4-lentiviral transduction. Recombinant human TIGIT-Fc chimera was purchased from R & D Systems. Briefly, cell binding was examined on Nectin-4 expressing T24 cells, which were dispensed into wells of V-bottom 96-well assay plates (1×10^5 cells/well), spun down, and the supernatant discarded. The cells were incubated with an anti-Nectin-4 antibody (hzD6.2C-mIgG2a) or an isotype control (mIgG2a) at eight different concentrations, starting with 400 nM and then 1:2 serial dilution, incubated at 4° C. for 30 min., and then rhTIGIT-Fc was added to each well at a final concentration of 40 nM. The treated cells were incubated at 4° C. for 30 min., washed three times, and then commercial PE anti-human Fc as a secondary antibody (1:200 dilution) was added and incubated at 4° C. for 20 min. The cells were washed twice and analyzed on BD Celesta™ flow cytometry. Percent of inhibition of TIGT (40 nM) binding due to anti-Nectin-4 antibody present was measured.
binding to mouse Nectin-4 (mouse Nectin-4),blocking of TIGIT binding [1],Molecule
no binding,,"hzD6.3C VL: ""CDR1 mutation to remove a potential deamidation site ... hzD6.3C VL N33Q (position 30c under Kabat), SEQ ID NO:15"" (antibody, V domains shown, Synthetic sequence hzD6.3C VL) VL: DIVMTQTPLSLPVTPGEPASISCRSSQSIVHSQGNTYLEWYLQKPGQSPQLLIYKVSNRFSGVPDRFSGSGSGTDFTLKISRVEAEDVGVYYCFQGSHVPYTFGGGTKVEIK"
no binding,,"hzD6.4C VL: ""a FR1 and a CDR1 mutation (hzD6.4C VL I2V N33Q (positions 2 and 30c under Kabat), SEQ ID NO:16"" (antibody, V domains shown, Synthetic sequence hzD6.4C VL) VL: DVVMTQTPLSLPVTPGEPASISCRSSQSIVHSQGNTYLEWYLQKPGQSPQLLIYKVSNRFSGVPDRFSGSGSGTDFTLKISRVEAEDVGVYYCFQGSHVPYTFGGGTKVEIK"
,more than 70%,"hzD6.2C-mIgG2a: ""an anti-Nectin-4 antibody (hzD6.2C-mIgG2a)"" (antibody, V domains shown) VH: EVQLVESGGGLVQPGGSLRLSCAASGFTFSNYDMSWVRQAPGKGLEWVATISSGGSYTYYVDSVKGRFTISRDNAKNSLYLQMNSLRAEDTAVYYCARQELGSYYAMDYWGQGTTVTVSS VL: DIVMTQTPLSLPVTPGEPASISCRSSQSIVHSNANTYLEWYLQKPGQSPQLLIYKVSNRFSGVPDRFSGSGSGTDFTLKISRVEAEDVGVYYCFQGSHVPYTFGGGTKVEIK"
